Reference: article PMC2515308, “Structural characterization of CA1462, the Candida albicans thiamine pyrophosphokinase” (BMC Structural Biology, 2008)

How the values were obtained:
[1] = target: Candida albicans thiamine pyrophosphokinase CA1462 (Candida albicans); assay: SEC; gel filtration of the purified TPK proteins on a Sephacryl S200 HR column
[2] = target: the molecule itself; assay: as above

With “Candida albicans thiamine pyrophosphokinase CA1462 (enzyme)” the stoichiometry N [1] was 2.

B1: Saccharomyces cerevisiae thiamine pyrophosphokinase YOR143C (enzyme)
chain: GHHHQLSEECIENPERIKIGTDLINIRNKMNLKELIHPNEDENSTLLILNQKIDIPRPLFYKIWKLHDLKVCADGAANRLYDYLDDDETLRIKYLPNYIIGDLDSLSEKVYKYYRKNKVTIIKQTTQYSTDFTKCVNLISLHFNSPEFRSLISNKDNLQSNHGIELEKGIHTLYNTMTESLVFSKVTPISLLALGGIGGRFDQTVHSITQLYTLSENASYFKLCYMTPTDLIFLIKKNGTLIEYDPQFRNTCIGNCGLLPIGEATLVKETRGLKWDVKNWPTSVVTGRVSSSNRFVGDNCCFIDTKDDIILNVEIFVDKLIDFLQLDGDLEAA
In the case of B1, the “stoichiometry N” value [2] is reported as 2.
